Paper PMC10621737

B1: IL-4 promoter full EMSA probe (FL) (dsDNA)
DNA 1: CTATGCAAAGCAAAAAGCCAGCAGCAGCCCCAAGCTGATAAGATTAATCTAAAGAGCAAATTATGGTG
DNA 2: CACCATAATTTGCTCTTTAGATTAATCTTATCAGCTTGGGGCTGCTGCTGGCTTTTTGCTTTGCATAG
B2: IFN-gamma promoter EMSA probe (dsDNA)
DNA 1: GAATTTCGTTTTTCACTTGTTCCCAACCACAAGCAAATGATCAATGT
DNA 2: ACATTGATCATTTGCTTGTGGTTGGGAACAAGTGAAAAACGAAATTC
B3: HIV LTR EMSA probe (dsDNA)
DNA 1: CAGTTGAACCAGAGCAAGTAGAAGAGGCC
DNA 2: GGCCTCTTCTACTTGCTCTGGTTCAACTG

Each binder was assayed against T1, rMtbEspR (Mycobacterium tuberculosis H37Rv, UniProt P9WJB7 1-132) (assay: EMSA; poly(dI-dC) 50 ng/ml). Conditions: protein: recombinant; tags: N- and C-terminal 6xHis; chain copies: 2; label: 32P 5' end (T4 PNK); blunt.
T1 sequence: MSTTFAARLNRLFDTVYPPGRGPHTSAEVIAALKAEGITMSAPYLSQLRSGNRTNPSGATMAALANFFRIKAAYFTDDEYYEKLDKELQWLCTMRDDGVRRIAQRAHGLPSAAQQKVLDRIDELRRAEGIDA
B1: binds. B2: no binding. B3: no binding.
